Among the data in the supplement of paper PMC12042874 are amyloid nucleation score values, retold here.

± gives the uncertainty stated by the source.

The data set in a line: amyloid nucleation score (Sup35N fusion, yeast selection) (log enrichment); library NNK2; higher = more nucleation; inactive = no reads after selection. The essentials: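 Plasmid inserts were Illumina-sequenced at input and output from psi-negative yeast expressing Sup35N fused to peptides of 20 random codons. The yeast were induced with 100 μM copper sulfate for 24 hours and grown 7 days at 30°C on medium lacking adenine and uracil, and sequences with under 100 input reads were excluded. Nucleation score is the DiMSum log enrichment of output over input reads, centred on the mode score of non-aggregating sequences.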
Substance INWLKYLAFLILLDMFNSFG came in with an amyloid nucleation score of 0.263 ± 0.64.

With INYSFWRSHSSP, the amyloid nucleation score was found to be 4.42 ± 0.099.

As to IPEVQCIKFMSYSGCHIQAL, the amyloid nucleation score result was “inactive”.

IPFIRMFVSFNNLQSISIPD: the amyloid nucleation score was determined as 5.534 ± 0.033.

Consider IPFQEWNSMFIKLSELTVES, for which the amyloid nucleation score was 3.97 ± 0.058.

Regarding IPKHLSSSVYAYYDLRLVFV, the amyloid nucleation score came to 0.08 ± 0.22.

With IPKKSNLFLQMETMQLLFFD, the amyloid nucleation score was found to be 2.67 ± 0.17.

Take IPPSLCARKLRCYYVGAEG: the amyloid nucleation score worked out at 0.249 ± 0.64.

Substance IPRIRR returned an amyloid nucleation score of 0.622 ± 0.66.

With IPVDT, the amyloid nucleation score is -0.668 ± 1.1.

IQARSYFVPTFSFLCTHSPT displayed an amyloid nucleation score of 0.839 ± 0.48.

Consider IQLDRSYSHNTSSLQGWHTM, for which the amyloid nucleation score amounted to 0.062 ± 0.74.

IQVRRITG returned an amyloid nucleation score of 0.089 ± 0.29.

IQYGEIGHIFCKVVISLNLE had an amyloid nucleation score of 1.47 ± 0.2.

Take IQYPLFSCTYEGFFGDRYMA: the amyloid nucleation score is -0.495 ± 0.55.

Substance IRAKFI yielded an amyloid nucleation score of 0.455 ± 0.39.

Consider IRALDGHGFSSPWARFGPAG, for which the amyloid nucleation score came out at 0.755 ± 0.4.

IRANGDKSVYM showed an amyloid nucleation score of 2.21 ± 0.076.

IRCCAWFDLVSESRSRGTWT: the amyloid nucleation score amounted to 5.43 ± 0.072.

Take IRKRCGINGMYRWIWVTWYL: the amyloid nucleation score was -1.12 ± 0.33.

For IRLFVRLNGHRWKRNW, the amyloid nucleation score was -0.003 ± 0.33.

Consider IRMAISLFNFGFSNMFMLKE, for which the amyloid nucleation score is -1.94 ± 1.1.

Regarding IRQAWLYS, the amyloid nucleation score was determined as 0.615 ± 0.13.

As to IRRTDREQ, the amyloid nucleation score was 0.053 ± 0.24.

IRRVSAQVCINWSIEWKSTR: the amyloid nucleation score is 1.07 ± 0.33.

Regarding IRWMTHWKV, the amyloid nucleation score was 0.834 ± 0.43.

Take IRYPIPWFY: the amyloid nucleation score entry is “inactive”.

In the case of IRYVMHWFISAVILTTPPCG, the amyloid nucleation score amounted to 0.355 ± 0.8.

ISFIDHYVY: the amyloid nucleation score result was “inactive”.

For ISFTVYGPRMVVWLQGIMFG, the amyloid nucleation score was -0.86 ± 0.35.

ISFWYHSKTS showed an amyloid nucleation score of 0.318 ± 0.57.

On to ISGVLLWIRRFKHPICEEAW, for which the amyloid nucleation score was determined as 0.371 ± 0.56.

Consider ISIFFVMLLMYRMFGYVECA, for which the amyloid nucleation score amounted to 0.856 ± 0.5.

Substance ISLRMKEHVICSLVPFMSQI yielded an amyloid nucleation score of 0.664 ± 0.22.

In turn, ISLSIWQPRNSDGWKQEPAP had an amyloid nucleation score of 2.41 ± 0.24.

Regarding ISLSLFRNGPIRMAKGSAWM, the amyloid nucleation score amounted to 6.081 ± 0.036.

In the case of ISMTTVDPQMEEFGLRHVGV, the amyloid nucleation score was determined as 0.831 ± 0.31.

ISPIVEIGRASTVTLSDISV: the amyloid nucleation score was determined as 4.71 ± 0.054.

Take ISRGRRYRTPVEILGGHMRH: the amyloid nucleation score was 0.917 ± 0.53.

ISRLWCHRHLCCPGWSMVRQ: the amyloid nucleation score is -0.063 ± 0.74.

In turn, ISRWTSIVFKRLNGRDKEMK showed an amyloid nucleation score of 4.29 ± 0.088.

Regarding ISSEWEYHDT, the amyloid nucleation score result was “inactive”.

On to ISSLLFVETELHSVFNLWWM, for which the amyloid nucleation score is -0.277 ± 0.44.

For the substance ISSNKGFVEVAVSWVPRDVR, the amyloid nucleation score amounted to 0.744 ± 0.38.

ISVCITILSYVRNECWFRGD: the amyloid nucleation score is -0.432 ± 0.24.

In turn, ISVHSQNTYVILELVRPSML registered an amyloid nucleation score of 8.388 ± 0.04.

Take ISVRVFNRNT: the amyloid nucleation score stood at 3.15 ± 0.078.

Consider ISVVNSGCCCITTHPLRTYR, for which the amyloid nucleation score was determined as 9.867 ± 0.079.

Turning to ISYSVKPLYFVSRVRTVNLG, the amyloid nucleation score stood at 4.13 ± 0.078.

As for ITCTFFFSVSVLSTSVDSMY, the amyloid nucleation score worked out at 0.674 ± 0.57.

Turning to ITDVFSMWIF, the amyloid nucleation score was -0.73 ± 0.5.

Regarding ITHCLTAFSVLWILVYVW, the amyloid nucleation score entry is “inactive”.

In the case of ITKAASTWDLLFFVRQVCRT, the amyloid nucleation score amounted to 0.353 ± 0.61.

Consider ITKPLVALKNGYMVL, for which the amyloid nucleation score is -0.177 ± 0.56.

Turning to ITLLGKVLSGVVKPSYPLAA, the amyloid nucleation score result was “inactive”.

ITSNSVHIGITNYYRRELDQ gave an amyloid nucleation score of 5.32 ± 0.056.

The substance ITWGFNVFMFVVPSWS registered an amyloid nucleation score of 8.67 ± 0.035.

Regarding ITYNIEISMRDF, the amyloid nucleation score was found to be 4.32 ± 0.11.

As to IVAGFNSKWLSTDFNRTENR, the amyloid nucleation score is -0.517 ± 0.78.

Substance IVCDWRTP gave an amyloid nucleation score of 0.614 ± 0.41.

For IVCPFKT, the amyloid nucleation score is -1.35 ± 0.78.

As for IVCSC, the amyloid nucleation score was -0.194 ± 0.45.

As to IVFYFVFRILSYGGSTIPVG, the amyloid nucleation score is -1.15 ± 0.64.

For IVGTDSQHVLVLQIFCVCLR, the amyloid nucleation score was -0.326 ± 1.1.

As for IVHYVFFWMGGILGNHASFP, the amyloid nucleation score is -1.31 ± 1.1.

As to IVILDRFSPCSRTNE, the amyloid nucleation score amounted to 0.45 ± 0.8.

On to IVKFDVRVMCADLIGSHGQW, for which the amyloid nucleation score stood at 7.02 ± 0.085.

Consider IVKYTGSKIYKFWYDLAGPL, for which the amyloid nucleation score was -1.06 ± 1.1.

As for IVVFSGVQVRGHCWNVKGAN, the amyloid nucleation score was found to be 7.64 ± 0.069.

The substance IVWLLLSGRF had an amyloid nucleation score of 4.54 ± 0.098.

As to IVWSNMTIQQSTSSVY, the amyloid nucleation score was -0.25 ± 0.25.

Take IVYKGFLREN: the amyloid nucleation score entry is “inactive”.

The substance IWFSWAVCFMITFHSHTHWW gave an amyloid nucleation score of 0.598 ± 0.57.

IWRCNPG had an amyloid nucleation score of 1.04 ± 0.68.

Turning to IYCNNPRWSFLHSLKLEPLG, the amyloid nucleation score was -0.476 ± 0.28.

IYCVRQSDGQYSSEMAHYII had an amyloid nucleation score of 2.64 ± 0.094.

Consider IYFESPPTRWGGYVADNCEY, for which the amyloid nucleation score is -1.36 ± 0.76.

IYGAMCLCP: the amyloid nucleation score was -0.005 ± 0.63.

For the substance IYLGVCYFSALGRDFMSKWW, the amyloid nucleation score came to 1.77 ± 0.15.

As for IYTLL, the amyloid nucleation score is -0.228 ± 1.1.

In turn, IYTRFQLFR came in with an amyloid nucleation score of 4.5 ± 0.069.

Take IYYRVWMSFSFRG: the amyloid nucleation score is -0.717 ± 0.37.

Regarding KAIFSCDARFVRWNAHNREC, the amyloid nucleation score entry was “inactive”.

KAIYPYLI: the amyloid nucleation score result is “inactive”.

With KALYYY, the amyloid nucleation score result is “inactive”.

Substance KARRPRIWDMDLLQLWANLP displayed an amyloid nucleation score of 1.12 ± 0.66.

As to KASLDN, the amyloid nucleation score came out at 0.018 ± 0.51.

As for KATDSRYRFFMILMFYMTIY, the amyloid nucleation score result was “inactive”.

Regarding KAYCVHSPVVCISGRVLDSG, the amyloid nucleation score is -1 ± 1.1.

Consider KCDYPGFWMPGQSYKDSILD, for which the amyloid nucleation score is -1.61 ± 1.1.

As for KCEYGLSVKYCVGQTGGN, the amyloid nucleation score came out at 1.17 ± 0.48.

As to KCFKVRTDLWRSC, the amyloid nucleation score was determined as 1.38 ± 0.53.

For the substance KCIAGMSWCEH, the amyloid nucleation score was found to be 0.252 ± 0.2.

As to KCIIRTNKFFAFHVCKLTVN, the amyloid nucleation score was 0.498 ± 0.3.

KCTTVIYYMCIGLRH yielded an amyloid nucleation score of 4.98 ± 0.041.

Consider KCVRKCYDIYGLLSCCGRLA, for which the amyloid nucleation score is 8.844 ± 0.039.

KCYSYCLLAL: the amyloid nucleation score is -0.202 ± 1.1.

On to KDAPKFIYFSQLTTKCITRY, for which the amyloid nucleation score was found to be 4.14 ± 0.044.

With KDCISLDSIV, the amyloid nucleation score entry was “inactive”.

Turning to KDFLANPKGESGQQRTMQCI, the amyloid nucleation score is -0.502 ± 0.79.

KDGSFSPISL: the amyloid nucleation score was -0.116 ± 0.35.

Turning to KDNSTPRIGASDEIDVVLAF, the amyloid nucleation score turned out to be 0.078 ± 0.77.

In the case of KDWGFRNTCG, the amyloid nucleation score is -0.184 ± 1.1.

On to KEAPFCASGLPD, for which the amyloid nucleation score was -0.324 ± 1.1.

For the substance KFGNSCR, the amyloid nucleation score was -0.428 ± 0.42.

In the case of KFKVHQMQDVLSWVGYHDGS, the amyloid nucleation score stood at 4.13 ± 0.044.

For the substance KFNPRPCSFKYLRV, the amyloid nucleation score entry is “inactive”.

In the case of KFRDVFFPY, the amyloid nucleation score was -0.76 ± 0.55.

As to KFRNCVRKDFLSMHHFSVVF, the amyloid nucleation score is -0.666 ± 0.45.

The substance KFSTLCRISYITYLFFG registered an amyloid nucleation score of 6.336 ± 0.049.

For the substance KFTVDFYLTACTGTKIDFMV, the amyloid nucleation score was determined as 5.981 ± 0.04.

In turn, KGFDEVGMMAIGFDSWVGTR came in with an amyloid nucleation score of 0.242 ± 0.26.

In turn, KGIDKPIEGPSSKHLRFNCY registered an amyloid nucleation score of 0.071 ± 0.65.

Turning to KGIYIFRHLCGMDVNMGPMD, the amyloid nucleation score is -0.764 ± 0.64.

Take KGKTLLYSAKHIVFNR: the amyloid nucleation score was 0.482 ± 0.3.

As to KGSIRCPRVFHQFRFLMG, the amyloid nucleation score was -0.302 ± 0.74.

As for KGSSSWTLPVYSLELSLV, the amyloid nucleation score is -0.731 ± 0.79.

The substance KGVCRNMAGGKYANMRYGGV displayed an amyloid nucleation score of 5.09 ± 0.051.

Substance KHSWSIALV returned an amyloid nucleation score of 0.239 ± 0.65.

Turning to KICWYQFKANMASQ, the amyloid nucleation score was determined as 4.41 ± 0.086.

Regarding KIKYYEAIDGACNSGWFDLG, the amyloid nucleation score was determined as 2.92 ± 0.057.

As to KILNDWADMKSRLMGRLLGE, the amyloid nucleation score turned out to be 0.65 ± 0.42.

Consider KIRFIPTPKYHEIYMNAAIG, for which the amyloid nucleation score was -1.7 ± 0.75.

In turn, KIRRPFEMRGSVRDRGCIVR gave an amyloid nucleation score of 0.938 ± 0.34.

With KIVLGYCVLKITEQELMLWV, the amyloid nucleation score entry is “inactive”.

For the substance KKACSLFTRGFGRYRNTYEV, the amyloid nucleation score entry is “inactive”.

Take KKHIWGCMRYKMLTL: the amyloid nucleation score was -0.393 ± 1.1.

Take KKLKRRRVFVCEFTKEGIRG: the amyloid nucleation score is -0.067 ± 1.1.

Substance KKLYFWINAHNRELTLKTWV displayed an amyloid nucleation score of 0.226 ± 0.54.

On to KKRLCDTSTIFQINNLHRMM, for which the amyloid nucleation score is -1.32 ± 0.76.

Take KKSYFTSLTLLFMTPFSLSY: the amyloid nucleation score result is “inactive”.

As for KLANYHLARDSFMVRKHRKG, the amyloid nucleation score came out at 0.602 ± 0.57.

Turning to KLAPLNKGSFA, the amyloid nucleation score was -0.211 ± 0.63.

Regarding KLFCTKVNIRRTSYSVTSIY, the amyloid nucleation score result is “inactive”.

Consider KLGCYVS, for which the amyloid nucleation score was determined as 3.23 ± 0.088.

KLLFLLVVVLADQMSCLGTS showed an amyloid nucleation score of 1.1 ± 0.36.

Substance KLPMRNFRDVCEADLHPVK yielded an amyloid nucleation score of 1.11 ± 0.61.

As to KLPYVEIPVVLTSLSYLGV, the amyloid nucleation score entry was “inactive”.

Take KLSNLSHDSYMLENALFALT: the amyloid nucleation score amounted to 2.52 ± 0.063.

Take KLTFSCGGLGGNLYVWL: the amyloid nucleation score came to 7.999 ± 0.042.
